Values quoted from earlier work in article PMC3253018.

Molecular target: NiV-G attachment glycoprotein (Nipah virus) (UniProt Q9IH62)
Sequence (Q9IH62 whole entry): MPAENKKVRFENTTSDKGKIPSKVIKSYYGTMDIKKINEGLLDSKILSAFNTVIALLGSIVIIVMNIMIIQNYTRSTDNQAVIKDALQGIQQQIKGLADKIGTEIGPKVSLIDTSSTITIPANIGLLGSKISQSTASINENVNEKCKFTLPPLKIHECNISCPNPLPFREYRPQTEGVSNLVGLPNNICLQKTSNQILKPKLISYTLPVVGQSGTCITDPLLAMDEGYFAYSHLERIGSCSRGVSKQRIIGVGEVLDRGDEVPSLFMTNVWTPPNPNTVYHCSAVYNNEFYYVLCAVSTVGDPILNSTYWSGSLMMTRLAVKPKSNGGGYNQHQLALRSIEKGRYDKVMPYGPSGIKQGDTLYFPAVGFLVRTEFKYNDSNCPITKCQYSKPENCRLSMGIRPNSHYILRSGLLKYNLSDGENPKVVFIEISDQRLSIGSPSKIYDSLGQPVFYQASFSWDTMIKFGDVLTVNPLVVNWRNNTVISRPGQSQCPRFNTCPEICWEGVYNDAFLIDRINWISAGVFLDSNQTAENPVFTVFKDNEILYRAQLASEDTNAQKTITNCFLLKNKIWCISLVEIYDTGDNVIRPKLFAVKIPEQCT

Sequence of ephrinB2 (P52799 28-333): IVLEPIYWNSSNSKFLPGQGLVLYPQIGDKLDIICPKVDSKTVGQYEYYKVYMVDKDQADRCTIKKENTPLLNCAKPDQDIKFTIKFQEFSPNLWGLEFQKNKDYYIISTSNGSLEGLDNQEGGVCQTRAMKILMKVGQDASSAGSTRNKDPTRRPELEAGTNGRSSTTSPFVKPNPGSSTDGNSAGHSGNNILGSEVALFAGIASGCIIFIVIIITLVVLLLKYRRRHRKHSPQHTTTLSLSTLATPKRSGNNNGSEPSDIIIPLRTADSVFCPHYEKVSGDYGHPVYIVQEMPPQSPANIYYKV

ephrinB2 (from UniProt P52799)
Kd: 0.06 nM
